Experimental data from the supplement of paper PMC12855868.

B1: library; numbered along this chain (parent)
chain: MAAAGGARLLRAASAVLGGPAGRWLHHAGSRAGSSGLLRNRGPGGSAEASRSLSVSARARSSSEDKITVHFINRDGETLTTKGKVGDSLLDVVVENNLDIDGFGACEGTLACSTCHLIFEDHIYEKLDAITDEENDMLDLAYGLTDRSRLGCQICLTKSMDNMTVRVPETVADARQSIDVGKTS

Variants of: B1
Experiment: scaled log2 fold change in cell abundance, elesclomol vs control (0 = silent mean, 1 = nonsense mean) (scaled log2 ratio); higher = higher viability under elesclomol (loss of FDX1 cuproptosis function)
Conditions: glucose 10 mM
[1] = with ABC1 FDX1 KO, elesclomol 5 nM, 14 days
[2] = with HEK293T FDX1 KO, elesclomol 40 nM, 11 days
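Also: variant abundance is its share of total variant reads in each endpoint sample, from next-generation sequencing of the integrated ORF PCR-amplified out of genomic DNA.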

| Variant | scaled log2 fold change [1] | scaled log2 fold change [2] |
| --- | --- | --- |
| D132W | -0.0682 | -0.335 |
| D132Y | 0.176 | 1.12 |
| E133A | -0.216 | 1.27 |
| E133C | 0.215 | -0.346 |
| E133D | 0.319 | 0.453 |
| E133F | -0.18 | -0.56 |
| E133G | -0.151 | -0.168 |
| E133H | -0.148 | -0.764 |
| E133I | 0.458 | -0.339 |
| E133K | 0.105 | 0.342 |
| E133L | -0.204 | 0.0198 |
| E133M | -0.152 | -0.547 |
| E133N | -0.113 | -0.0813 |
| E133P | -0.087 | 0.243 |
| E133Q | -0.239 | -0.406 |
| E133R | 0.274 | 0.00388 |
| E133S | -1.5 | – |
| E133T | 0.0196 | 0.842 |
| E133V | 0.153 | -0.0517 |
| E133W | -1.03 | 0.0959 |
| E133Y | -0.281 | 0.898 |
| E134A | 0.628 | 0.137 |
| E134C | 0.676 | 1.13 |
| E134D | 0.911 | 1.21 |

| Variant | scaled log2 fold change [1] | scaled log2 fold change [2] |
| --- | --- | --- |
| E134F | 1.23 | 1.01 |
| E134G | 1.21 | 0.684 |
| E134H | 0.345 | 0.225 |
| E134I | 1.03 | 0.865 |
| E134K | 1.1 | 1.28 |
| E134L | 1.1 | 1.21 |
| E134M | 0.946 | 0.587 |
| E134N | 1.16 | 0.994 |
| E134P | 1.22 | 1.01 |
| E134Q | 0.525 | -0.44 |
| E134R | 1.23 | 1.26 |
| E134S | 0.926 | 0.571 |
| E134T | 1.02 | 0.834 |
| E134V | 0.638 | 0.419 |
| E134W | 1.07 | 1.32 |
| E134Y | 0.977 | 2.18 |
| N135A | -0.0811 | -0.437 |
| N135C | 0.138 | – |
| N135D | 0.117 | 0.905 |
| N135E | -0.00674 | 0.0823 |
| N135F | 0.44 | -0.599 |
| N135G | 0.0707 | -0.645 |
| N135I | -0.261 | 0.197 |
| N135K | -0.148 | -0.129 |

| Variant | scaled log2 fold change [1] | scaled log2 fold change [2] |
| --- | --- | --- |
| N135L | 0.151 | 0.661 |
| N135M | -0.00864 | -0.104 |
| N135P | 0.887 | 0.821 |
| N135Q | 0.215 | -0.339 |
| N135R | -0.532 | 1.02 |
| N135S | 0.055 | -0.262 |
| N135T | -0.162 | -0.382 |
| N135V | 0.161 | 0.0375 |
| N135W | -0.118 | 0.554 |
| N135Y | 0.0894 | 0.75 |
| D136A | 0.243 | -0.0274 |
| D136C | 0.0368 | 0.938 |
| D136E | 0.196 | 0.183 |
| D136F | 0.493 | -0.85 |
| D136G | 0.589 | 0.805 |
| D136H | 0.556 | 0.766 |
| D136I | 0.422 | -0.019 |
| D136K | 0.913 | 0.124 |
| D136L | 0.751 | 0.113 |
| D136M | 0.136 | -0.421 |
| D136N | 0.198 | -0.651 |
| D136P | 0.922 | 1.19 |
| D136Q | 0.344 | 0.87 |
| D136R | 0.898 | 1.08 |

| Variant | scaled log2 fold change [1] | scaled log2 fold change [2] |
| --- | --- | --- |
| D136S | 0.133 | 0.338 |
| D136T | 0.611 | 0.431 |
| D136V | 0.459 | 0.696 |
| D136W | 0.188 | 0.105 |
| D136Y | 0.0478 | -0.0361 |
| M137A | -0.189 | 0.285 |
| M137C | -0.596 | -0.635 |
| M137D | 0.813 | 0.152 |
| M137E | -0.366 | 0.879 |
| M137F | -0.075 | -0.7 |
| M137G | -0.0982 | -0.171 |
| M137H | 0.073 | -0.384 |
| M137I | 0.0941 | 0.499 |
| M137K | -0.121 | 1.33 |
| M137L | 0.182 | 1.39 |
| M137N | 0.119 | – |
| M137P | -0.0177 | -0.842 |
| M137Q | 0.0471 | -0.244 |
| M137R | -0.477 | -0.0264 |
| M137S | -0.337 | -0.153 |
| M137T | 0.14 | -0.403 |
| M137V | -0.0968 | -0.154 |
| M137W | -0.244 | 1.1 |
| M137Y | -0.108 | 1.02 |

| Variant | scaled log2 fold change [1] | scaled log2 fold change [2] |
| --- | --- | --- |
| L138A | 0.519 | -0.22 |
| L138C | -0.108 | 0.251 |
| L138D | 1.11 | 1.04 |
| L138E | 0.986 | 0.639 |
| L138F | 0.0535 | -0.0648 |
| L138G | 0.706 | 0.389 |
| L138H | 0.199 | 0.223 |
| L138I | 0.0896 | 0.0458 |
| L138K | 0.41 | -0.306 |
| L138M | 0.188 | 0.00846 |
| L138N | 0.767 | 0.557 |
| L138P | 1.15 | 0.887 |
| L138Q | -0.00504 | 0.34 |
| L138R | -0.0868 | -0.131 |
| L138S | 0.467 | 0.0871 |
| L138T | -0.0362 | 0.287 |
| L138V | -0.213 | -0.414 |
| L138W | 0.885 | 0.749 |
| L138Y | 0.578 | -0.246 |
| D139A | 0.113 | -0.357 |
